Results on seven molecules are retold here after patent US20170101454A1 (Novo Nordisk, published 2017).

B1: N^ε28-[(4S)-4-carboxy-4-[[(4S)-4-carboxy-4-[[2-[2-[2-[[2-[2-[2-[[(4S)-4-carboxy-4-(17-carboxyheptadecanoylamino)butanoyl]amino]ethoxy]ethoxy]acetyl]amino]ethoxy … (peptide)
peptide: H[Aib]QGTFTSDYSKYLDARRARDFVAWLIK([γGlu-γGlu-AEEA-AEEA-γGlu-C18 diacid])T-NH2
modifications: N-terminus assumed
SMILES: CC[C@H](C)[C@H](NC(=O)[C@H](CC(C)C)NC(=O)[C@H](Cc1c[nH]c2ccccc12)NC(=O)[C@H](C)NC(=O)[C@@H](NC(=O)[C@H](Cc1ccccc1)NC(=O)[C@H](CC(=O)O)NC(=O)[C@H](CCCNC(=N)N)NC(=O)[C@H](C)NC(=O)[C@H](CCCNC(=N)N)NC(=O)[C@H](CCCNC(=N)N)NC(=O)[C@H](C)NC(=O)[C@H](CC(=O)O)NC(=O)[C@H](CC(C)C)NC(=O)[C@H](Cc1ccc(O)cc1)NC(=O)[C@H](CCCCN)NC(=O)[C@H](CO)NC(=O)[C@H](Cc1ccc(O)cc1)NC(=O)[C@H](CC(=O)O)NC(=O)[C@H](CO)NC(=O)[C@@H](NC(=O)[C@H](Cc1ccccc1)NC(=O)[C@@H](NC(=O)CNC(=O)[C@H](CCC(N)=O)NC(=O)C(C)(C)NC(=O)[C@@H](N)Cc1c[nH]cn1)[C@@H](C)O)[C@@H](C)O)C(C)C)C(=O)N[C@@H](CCCCNC(=O)CC[C@H](NC(=O)CC[C@H](NC(=O)COCCOCCNC(=O)COCCOCCNC(=O)CC[C@H](NC(=O)CCCCCCCCCCCCCCCCC(=O)O)C(=O)O)C(=O)O)C(=O)O)C(=O)N[C@H](C(N)=O)[C@@H](C)O
notes: also called Chem. 32; Chem 32
B2: N^ε28-[(4S)-4-carboxy-4-[[(4S)-4-carboxy-4-[[2-[2-[2-[[2-[2-[2-[[(4S)-4-carboxy-4-[[(4S)-4-carboxy-4-(17-carboxyheptadecanoylamino)butanoyl]amino]butanoyl]amino … (peptide)
peptide: H[Ac4c]QGTFTSDLSRYLESRRAREFVQWLIK([γGlu-γGlu-AEEA-AEEA-γGlu-γGlu-C18 diacid])T-NH2
modifications: N-terminus assumed
SMILES: CC[C@H](C)[C@H](NC(=O)[C@H](CC(C)C)NC(=O)[C@H](Cc1c[nH]c2ccccc12)NC(=O)[C@H](CCC(N)=O)NC(=O)[C@@H](NC(=O)[C@H](Cc1ccccc1)NC(=O)[C@H](CCC(=O)O)NC(=O)[C@H](CCCNC(=N)N)NC(=O)[C@H](C)NC(=O)[C@H](CCCNC(=N)N)NC(=O)[C@H](CCCNC(=N)N)NC(=O)[C@H](CO)NC(=O)[C@H](CCC(=O)O)NC(=O)[C@H](CC(C)C)NC(=O)[C@H](Cc1ccc(O)cc1)NC(=O)[C@H](CCCNC(=N)N)NC(=O)[C@H](CO)NC(=O)[C@H](CC(C)C)NC(=O)[C@H](CC(=O)O)NC(=O)[C@H](CO)NC(=O)[C@@H](NC(=O)[C@H](Cc1ccccc1)NC(=O)[C@@H](NC(=O)CNC(=O)[C@H](CCC(N)=O)NC(=O)C1(NC(=O)[C@@H](N)Cc2c[nH]cn2)CCC1)[C@@H](C)O)[C@@H](C)O)C(C)C)C(=O)N[C@@H](CCCCNC(=O)CC[C@H](NC(=O)CC[C@H](NC(=O)COCCOCCNC(=O)COCCOCCNC(=O)CC[C@H](NC(=O)CC[C@H](NC(=O)CCCCCCCCCCCCCCCCC(=O)O)C(=O)O)C(=O)O)C(=O)O)C(=O)O)C(=O)N[C@H](C(N)=O)[C@@H](C)O
notes: also called Chem. 17; Chem 17
B3: N^ε28-[(4S)-4-carboxy-4-[[(4S)-4-carboxy-4-[[2-[2-[2-[[2-[2-[2-[[(4S)-4-carboxy-4-[[(4S)-4-carboxy-4-(17-carboxyheptadecanoylamino)butanoyl]amino]butanoyl]amino … (peptide)
peptide: H[Ac4c]QGTFTSDISKYLESRRAREFVQWLIK([γGlu-γGlu-AEEA-AEEA-γGlu-γGlu-C18 diacid])T-NH2
modifications: N-terminus assumed
SMILES: CC[C@H](C)[C@H](NC(=O)[C@H](CC(=O)O)NC(=O)[C@H](CO)NC(=O)[C@@H](NC(=O)[C@H](Cc1ccccc1)NC(=O)[C@@H](NC(=O)CNC(=O)[C@H](CCC(N)=O)NC(=O)C1(NC(=O)[C@@H](N)Cc2c[nH]cn2)CCC1)[C@@H](C)O)[C@@H](C)O)C(=O)N[C@@H](CO)C(=O)N[C@@H](CCCCN)C(=O)N[C@@H](Cc1ccc(O)cc1)C(=O)N[C@@H](CC(C)C)C(=O)N[C@@H](CCC(=O)O)C(=O)N[C@@H](CO)C(=O)N[C@@H](CCCNC(=N)N)C(=O)N[C@@H](CCCNC(=N)N)C(=O)N[C@@H](C)C(=O)N[C@@H](CCCNC(=N)N)C(=O)N[C@@H](CCC(=O)O)C(=O)N[C@@H](Cc1ccccc1)C(=O)N[C@H](C(=O)N[C@@H](CCC(N)=O)C(=O)N[C@@H](Cc1c[nH]c2ccccc12)C(=O)N[C@@H](CC(C)C)C(=O)N[C@H](C(=O)N[C@@H](CCCCNC(=O)CC[C@H](NC(=O)CC[C@H](NC(=O)COCCOCCNC(=O)COCCOCCNC(=O)CC[C@H](NC(=O)CC[C@H](NC(=O)CCCCCCCCCCCCCCCCC(=O)O)C(=O)O)C(=O)O)C(=O)O)C(=O)O)C(=O)N[C@H](C(N)=O)[C@@H](C)O)[C@@H](C)CC)C(C)C
notes: also called Chem. 26; Chem 26
B4: N^ε28-[(4S)-4-carboxy-4-[[(4S)-4-carboxy-4-[[2-[2-[2-[[2-[2-[2-[[(4S)-4-carboxy-4-(17-carboxyheptadecanoylamino)butanoyl]amino]ethoxy]ethoxy]acetyl]amino]ethoxy … (peptide)
peptide: H[Aib]QGTFTSDYSKYLESRRAQDFVAWLIK([γGlu-γGlu-AEEA-AEEA-γGlu-C18 diacid])T-NH2
modifications: N-terminus assumed
SMILES: CC[C@H](C)[C@H](NC(=O)[C@H](CC(C)C)NC(=O)[C@H](Cc1c[nH]c2ccccc12)NC(=O)[C@H](C)NC(=O)[C@@H](NC(=O)[C@H](Cc1ccccc1)NC(=O)[C@H](CC(=O)O)NC(=O)[C@H](CCC(N)=O)NC(=O)[C@H](C)NC(=O)[C@H](CCCNC(=N)N)NC(=O)[C@H](CCCNC(=N)N)NC(=O)[C@H](CO)NC(=O)[C@H](CCC(=O)O)NC(=O)[C@H](CC(C)C)NC(=O)[C@H](Cc1ccc(O)cc1)NC(=O)[C@H](CCCCN)NC(=O)[C@H](CO)NC(=O)[C@H](Cc1ccc(O)cc1)NC(=O)[C@H](CC(=O)O)NC(=O)[C@H](CO)NC(=O)[C@@H](NC(=O)[C@H](Cc1ccccc1)NC(=O)[C@@H](NC(=O)CNC(=O)[C@H](CCC(N)=O)NC(=O)C(C)(C)NC(=O)[C@@H](N)Cc1c[nH]cn1)[C@@H](C)O)[C@@H](C)O)C(C)C)C(=O)N[C@@H](CCCCNC(=O)CC[C@H](NC(=O)CC[C@H](NC(=O)COCCOCCNC(=O)COCCOCCNC(=O)CC[C@H](NC(=O)CCCCCCCCCCCCCCCCC(=O)O)C(=O)O)C(=O)O)C(=O)O)C(=O)N[C@H](C(N)=O)[C@@H](C)O
notes: also called Chem. 34; Chem 34
B5: N^ε28-[(4S)-4-carboxy-4-[[(4S)-4-carboxy-4-[[2-[2-[2-[[2-[2-[2-[[(4S)-4-carboxy-4-[[(4S)-4-carboxy-4-(17-carboxyheptadecanoylamino)butanoyl]amino]butanoyl]amino … (peptide)
peptide: H[Aib]QGTFTSDLSKYLESRRAREFVQWLIK([γGlu-γGlu-AEEA-AEEA-γGlu-γGlu-C18 diacid])T-NH2
modifications: N-terminus assumed
SMILES: CC[C@H](C)[C@H](NC(=O)[C@H](CC(C)C)NC(=O)[C@H](Cc1c[nH]c2ccccc12)NC(=O)[C@H](CCC(N)=O)NC(=O)[C@@H](NC(=O)[C@H](Cc1ccccc1)NC(=O)[C@H](CCC(=O)O)NC(=O)[C@H](CCCNC(=N)N)NC(=O)[C@H](C)NC(=O)[C@H](CCCNC(=N)N)NC(=O)[C@H](CCCNC(=N)N)NC(=O)[C@H](CO)NC(=O)[C@H](CCC(=O)O)NC(=O)[C@H](CC(C)C)NC(=O)[C@H](Cc1ccc(O)cc1)NC(=O)[C@H](CCCCN)NC(=O)[C@H](CO)NC(=O)[C@H](CC(C)C)NC(=O)[C@H](CC(=O)O)NC(=O)[C@H](CO)NC(=O)[C@@H](NC(=O)[C@H](Cc1ccccc1)NC(=O)[C@@H](NC(=O)CNC(=O)[C@H](CCC(N)=O)NC(=O)C(C)(C)NC(=O)[C@@H](N)Cc1c[nH]cn1)[C@@H](C)O)[C@@H](C)O)C(C)C)C(=O)N[C@@H](CCCCNC(=O)CC[C@H](NC(=O)CC[C@H](NC(=O)COCCOCCNC(=O)COCCOCCNC(=O)CC[C@H](NC(=O)CC[C@H](NC(=O)CCCCCCCCCCCCCCCCC(=O)O)C(=O)O)C(=O)O)C(=O)O)C(=O)O)C(=O)N[C@H](C(N)=O)[C@@H](C)O
notes: also called Chem. 25; Chem 25
B6: N^ε28-[(4S)-4-carboxy-4-[[(4S)-4-carboxy-4-[[2-[2-[2-[[2-[2-[2-[[(4S)-4-carboxy-4-(17-carboxyheptadecanoylamino)butanoyl]amino]ethoxy]ethoxy]acetyl]amino]ethoxy … (peptide)
peptide: H[Aib]QGTFTSDYSKYLDLRRARDFVAWLIK([γGlu-γGlu-AEEA-AEEA-γGlu-C18 diacid])T-NH2
modifications: N-terminus assumed
SMILES: CC[C@H](C)[C@H](NC(=O)[C@H](CC(C)C)NC(=O)[C@H](Cc1c[nH]c2ccccc12)NC(=O)[C@H](C)NC(=O)[C@@H](NC(=O)[C@H](Cc1ccccc1)NC(=O)[C@H](CC(=O)O)NC(=O)[C@H](CCCNC(=N)N)NC(=O)[C@H](C)NC(=O)[C@H](CCCNC(=N)N)NC(=O)[C@H](CCCNC(=N)N)NC(=O)[C@H](CC(C)C)NC(=O)[C@H](CC(=O)O)NC(=O)[C@H](CC(C)C)NC(=O)[C@H](Cc1ccc(O)cc1)NC(=O)[C@H](CCCCN)NC(=O)[C@H](CO)NC(=O)[C@H](Cc1ccc(O)cc1)NC(=O)[C@H](CC(=O)O)NC(=O)[C@H](CO)NC(=O)[C@@H](NC(=O)[C@H](Cc1ccccc1)NC(=O)[C@@H](NC(=O)CNC(=O)[C@H](CCC(N)=O)NC(=O)C(C)(C)NC(=O)[C@@H](N)Cc1c[nH]cn1)[C@@H](C)O)[C@@H](C)O)C(C)C)C(=O)N[C@@H](CCCCNC(=O)CC[C@H](NC(=O)CC[C@H](NC(=O)COCCOCCNC(=O)COCCOCCNC(=O)CC[C@H](NC(=O)CCCCCCCCCCCCCCCCC(=O)O)C(=O)O)C(=O)O)C(=O)O)C(=O)N[C@H](C(N)=O)[C@@H](C)O
notes: also called Chem. 33; Chem 33

Starred links: 1 amine or outer side, 2 acyl side, 3 side chain; linkers in the order of their positions; H or OH if unused. Non-standard residues stand in square brackets, D forms with d. Groups on a side chain read outwards from the residue. No end group written: not given here. *: point of attachment. C18 diacid = O=C(O)CCCCCCCCCCCCCCCCC(=O)*; γGlu = O=C(O)[C@H](CCC(=O)[*:2])N[*:1]; Ac4c = NC1(C(=O)O)CCC1; AEEA = NCCOCCOCC(=O)O; Aib = CC(C)(N)C(=O)O

In the first experiment the target is T1, human GLP-1 receptor (human, UniProt P43220 24-463). The experiment in a line: cell-based or functional assay.
For the molecule B1, the “GLP-1R EC50 (pM) [Assay (I)(a)], CRE luciferase reporter, BHK cells” value (“GLP-1R EC50 (pM) [Assay (I)(a)]” below) amounted to 2 pM.
Consider B2, for which the “GLP-1R EC50 (pM) [Assay (I)(a)]” value amounted to 4 pM.
For H[Ac4c]QGTFTSDLSKYLESRRAREFVQWLIK([γGlu-γGlu-AEEA-AEEA-γGlu-γGlu-C18 diacid])T-NH2 (also called Chem. 13; Chem 13), the “GLP-1R EC50 (pM) [Assay (I)(a)]” value was 4 pM.
The same measure, in the same setting: then B3, with 2 pM.
As for B4, the “GLP-1R EC50 (pM) [Assay (I)(a)]” value stood at 3 pM.
On the same count and under the same terms, under B5 stands 2 pM; under B6, 7 pM.

In another experiment the target is T2, human glucagon receptor (human, UniProt P47871 26-477). The experiment is described as follows: cell-based or functional assay.
T2 sequence (P47871 26-477): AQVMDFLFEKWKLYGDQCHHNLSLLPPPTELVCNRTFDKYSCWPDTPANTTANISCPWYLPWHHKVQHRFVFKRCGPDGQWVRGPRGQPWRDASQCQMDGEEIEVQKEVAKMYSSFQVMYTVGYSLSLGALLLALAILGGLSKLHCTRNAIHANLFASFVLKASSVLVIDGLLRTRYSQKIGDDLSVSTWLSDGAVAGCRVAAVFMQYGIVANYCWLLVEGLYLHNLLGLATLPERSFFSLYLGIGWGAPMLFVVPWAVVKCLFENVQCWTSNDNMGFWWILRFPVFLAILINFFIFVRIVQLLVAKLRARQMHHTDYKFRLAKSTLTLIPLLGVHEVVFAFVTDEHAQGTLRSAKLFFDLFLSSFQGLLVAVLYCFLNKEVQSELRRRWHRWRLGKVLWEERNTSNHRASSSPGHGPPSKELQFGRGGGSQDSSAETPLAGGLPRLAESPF
Take B1: the “GlucagonR EC50 (pM), [Assay (I)(b)], CRE luciferase reporter, BHK cells” value turned out to be 7 pM.
Still for that read-out and setting: under B2 stands 45 pM; under H[Ac4c]QGTFTSDLSKYLESRRAREFVQWLIK([γGlu-γGlu-AEEA-AEEA-γGlu-γGlu-C18 diacid])T-NH2 (also called Chem. 13; Chem 13), 23 pM; under B3, 42 pM.
Still for that read-out and setting: then B4, with 66 pM; and B5, with 52 pM; and B6, with 8 pM.

The target in another experiment is T1, human GLP-1 receptor. The experiment in a line: displacement of [125I]-GLP-1-(7-36)NH2 from BHK membranes with human GLP-1R, SPA, no serum albumin. In general terms: Displacement assays read how much labelled ligand stays bound in the presence of the test substance.
For the molecule B1, the IC50 – broadly, the concentration needed to halve the response being measured – stood at 0.3 nM.
Same read-out and setting: then B2, with 0.1 nM; and H[Ac4c]QGTFTSDLSKYLESRRAREFVQWLIK([γGlu-γGlu-AEEA-AEEA-γGlu-γGlu-C18 diacid])T-NH2 (also called Chem. 13; Chem 13), with 0.1 nM.
Still for that read-out and setting: under B3 stands 0.4 nM; under B4, 2.2 nM.
The molecule B5 came in with an IC50 of 0.1 nM. Against the preceding molecule, the IC50 is about 22-fold lower.
Still for that read-out and setting: under B6 stands 2.3 nM.

The next experiment deals with T2, human glucagon receptor. The experiment in a line: displacement of [125I]-glucagon from BHK membranes with human glucagon receptor, SPA, no serum albumin.
Take B1: the 50% inhibitory concentration (IC50) came out at 0.9 nM. This counts as sub-nanomolar.
The same measure, in the same setting: under B2 stands 4.3 nM; under H[Ac4c]QGTFTSDLSKYLESRRAREFVQWLIK([γGlu-γGlu-AEEA-AEEA-γGlu-γGlu-C18 diacid])T-NH2 (also called Chem. 13; Chem 13), 1.8 nM; under B3, 10.1 nM.
The same measure, in the same setting: then B4, with 7 nM.
In turn, B5 had a half-inhibitory concentration (IC50) of 11.2 nM.
Still for that read-out and setting: then B6, with 6.9 nM.
